In publication PMC3260182, “Stabilisation of the Fc Fragment of Human IgG1 by Engineered Intradomain Disulfide Bonds” (PLoS ONE, 2012):

Target: the molecule itself
Assay: SEC; size-exclusion HPLC, TSK G3000 SWXL column, PBS with 200 mM NaCl, 1 ml/min, 50 ug protein at about 1 mg/ml; native conditions; molecular weight standards

B1: Fc fragment of human IgG1 with the CysP2 and CysP4 disulfide bonds combined (domain or fragment)
chain: EFTCPPCPAPELLGGPSVFLFPPKPKDTLMISRTPEVTCVVVDVSHEDPEVKFNWYVDGVEVHNAKTKPREEQYNSTYRVVSVLTVLHQDWLNGKEYKCKVSNKALPAPIEKTISKAKGQCREPQVYTLPPSRDELTKNQVSLTCLVKGFYPCDIAVEWESNGQPENNYKTTPCVLDSDGSFFLYSKLTVDKSRWQQGNVFSCSVMHECLHNHYTQKSLSLSPGK
modifications: N-linked glycosylation at residue Asn297; engineered intradomain disulfide bonds between Cys343 and Cys431 and between Cys375 and Cys396
notes: 2 extra amino acid residues at the N-terminal site due to the EcoRI site used for cloning; the substitutions are still to be applied; Fc fragment of the human IgG1 heavy chain constant region in which the CysP2 and CysP4 mutations are combined; the first letter T is position 225. numbers count on: Kabat EU numbering; Primers are in File S1; also called CysP24; FcCysP24; source: Pichia pastoris …
With B1 the “stoichiometry N” value was 2.
